In article PMC10872586 (Cell reports, 2023):
Changes are numbered by the printed parent chain.

Experiments:
mini-HA #4900 = mini-HA #4900 (Designed influenza HA stem #4900, …, stabilised); assay: BLI; conditions: both partners purified
[1] = target: HA protein from H1N1 A/Solomon Islands/3/2006 (Influenza A virus (A/Solomon …, UniProt A7Y8I1, strain)); assay: BLI; conditions: both partners purified

B1: CR9114 with germline heavy chain, Fab (Fab, V domains shown)
VH: QVQLVQSGAEVKKPGSSVKVSCKASGGTFSSYAISWVRQAPGQGLEWMGGIIPIFGTANYAQKFQGRVTITADKSTSTAYMELSSLRSEDTAVYYCARHGNYYYYYGMDVWGQGTTVTVSS
VL: SYVLTQPPAVSGTPGQRVTISCSGSDSNIGRRSVNWYQQFPGTAPKLLIYSNDQRPSVVPDRFSGSKSGTSASLAISGLQSEDEAEYYCAAWDDSLKGAVFGGGTQLTVL
notes: also called CR9114 gHC; WT; source: Expi293F, co-transfected, purified (CaptureSelect CH1-XL)
mini-HA #4900
  Kd: 6.2 µM

B2: CR9114 gHC Fab VL W91Y (Fab, V domains shown)
VH: B1 VH
VL: B1 VL with W92Y
notes: Kabat numbering; source: Expi293F, co-transfected, purified (CaptureSelect CH1-XL)
mini-HA #4900
  Kd: 45.7 µM
[1]
  Kd: 27.2 µM

B3: CR9114 gHC Fab VL A96V (Fab, V domains shown)
VH: B1 VH
VL: B1 VL with A99V
notes: as for B2
mini-HA #4900
  Kd: 3.8 µM
[1]
  Kd: 15.8 µM

B4: CR9114 gHC Fab VL A96S (Fab, V domains shown)
VH: B1 VH
VL: B1 VL with A99S
notes: as for B2
mini-HA #4900
  Kd: 1.9 µM
[1]
  Kd: 1.6 µM

B5: CR9114 gHC Fab VL W91F (Fab, V domains shown)
VH: B1 VH
VL: B1 VL with W92F
notes: as for B2
mini-HA #4900
  Kd: 9.7 µM
[1]
  Kd: 9.6 µM

B6: CR9114 gHC Fab VL A96R (Fab, V domains shown)
VH: B1 VH
VL: B1 VL with A99R
notes: as for B2
mini-HA #4900
  Kd: 13 µM
[1]
  Kd: 21.5 µM
